Measurements published in article PMC6073210, “Adducin‐1 is essential for spindle pole integrity through its interaction with TPX2” (EMBO Reports, 2018).

B1: FLAG-ADD1 WT (adducin-1), transiently expressed in HEK293 cells [not stated] / GST-TPX2 aa 120–370 fusion protein [human] (parent)
chain 1: MNGDSRAAVVTSPPPTTAPHKERYFDRVDENNPEYLRERNMAPDLRQDFNMMEQKKRVSMILQSPAFCEELESMIQEQFKKGKNPTGLLALQQIADFMTTNVPNVYPAAPQGGMAALNMSLGMVTPVNDLRGSDSIAYDKGEKLLRCKLAAFYRLADLFGWSQLIYNHITTRVNSEQEHFLIVPFGLLYSEVTASSLVKINLQGDIVDRGSTNLGVNQAGFTLHSAIYAARPDVKCVVHIHTPAGAAVSAMKCGLLPISPEALSLGEVAYHDYHGILVDEEEKVLIQKNLGPKSKVLILRNHGLVSVGESVEEAFYYIHNLVVACEIQVRTLASAGGPDNLVLLNPEKYKAKSRSPGSPVGEGTGSPPKWQIGEQEFEALMRMLDNLGYRTGYPYRYPALREKSKKYSDVEVPASVTGYSFASDGDSGTCSPLRHSFQKQQREKTRWLNSGRGDEASEEGQNGSSPKSKTKWTKEDGHRTSTSAVPNLFVPLNTNPKEVQEMRNKIREQNLQDIKTAGPQSQVLCGVVMDRSLVQGELVTASKAIIEKEYQPHVIVSTTGPNPFTTLTDRELEEYRREVERKQKGSEENLDEAREQKEKSPPDQPAVPHPPPSTPIKLEEDLVPEPTTGDDSDAATFKPTLPDLSPDEPSEALGFPMLEKEEEAHRPPSPTEAPTEASPEPAPDPAPVAEEAAPSAVEEGAAADPGSDGSPGKSPSKKKKKFRTPSFLKKSKKKSDS
chain 2: RSLRLSAQKDLEQKEKHHVKMKAKRCATPVIIDEILPSKKMKVSNNKKKPEEEGSAHQDTAEKNASSPEKAKGRHTVPCMPPAKQKFLKSTEEQELEKSMKMQQEVVEMRKKNEEFKKLALAGIGQPVKKSVSQVTKSVDFHFRTDERIKQHPKNQEEYKEVNFTSELRKHPSSPARVTKGCTIVKPFNLSQGKKRTFDETVSTYVPLAQQVEDFHKRTPNRYHLRSKKDDINLLPSKSSVTKICRDPQTP

Variants of: B1
Assay: GST pull-down (immunoblot quantification)
Details: with GST-TPX2 aa 120–370 fusion protein [human]; lysates from HEK293 cells; five independent experiments; means ± s.d.; parent: 100; read off a plot

**Q.** How did the percent of parent turn out when chain 1 S726A was run?
**A.** 40%
